Changes are numbered by the printed parent chain.
T1: LZTR1 R810W-FLAG (human, UniProt Q8N653 1-840)
T1 construct: Stably expressed in U87 cells by lentivirus; also called LZTR1-FLAG-R810W; LZTR1 RW; not shown: FLAG tag
T1 sequence (looked up): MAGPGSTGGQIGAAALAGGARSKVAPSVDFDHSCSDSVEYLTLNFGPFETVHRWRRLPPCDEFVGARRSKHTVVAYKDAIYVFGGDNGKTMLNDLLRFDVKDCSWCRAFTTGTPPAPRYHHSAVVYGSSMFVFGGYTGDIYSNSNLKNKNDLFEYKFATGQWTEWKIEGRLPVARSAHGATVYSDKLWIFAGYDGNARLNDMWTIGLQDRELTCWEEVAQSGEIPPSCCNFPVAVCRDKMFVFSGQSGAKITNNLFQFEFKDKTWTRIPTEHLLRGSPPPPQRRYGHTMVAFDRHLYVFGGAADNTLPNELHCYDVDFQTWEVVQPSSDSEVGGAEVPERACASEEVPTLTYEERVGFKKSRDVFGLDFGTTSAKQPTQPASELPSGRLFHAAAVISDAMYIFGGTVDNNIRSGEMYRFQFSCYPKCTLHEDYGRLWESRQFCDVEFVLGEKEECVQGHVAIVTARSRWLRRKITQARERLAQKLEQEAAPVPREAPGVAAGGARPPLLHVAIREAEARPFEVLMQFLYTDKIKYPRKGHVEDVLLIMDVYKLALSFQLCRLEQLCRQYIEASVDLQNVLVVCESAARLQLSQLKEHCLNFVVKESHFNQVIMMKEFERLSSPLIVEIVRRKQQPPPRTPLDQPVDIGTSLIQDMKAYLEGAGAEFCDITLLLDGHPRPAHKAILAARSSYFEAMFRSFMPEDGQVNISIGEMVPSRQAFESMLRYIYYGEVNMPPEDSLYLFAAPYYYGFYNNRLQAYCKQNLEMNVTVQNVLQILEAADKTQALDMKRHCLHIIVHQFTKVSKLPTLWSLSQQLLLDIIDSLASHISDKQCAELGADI

T2: LZTR1-FLAG (human, UniProt Q8N653 1-840)
T2 construct: Expressed in HEK 293T, HeLa or U87 cells; used as cell lysate; also called LZTR1 wild type-FLAG; LZTR1 WT; not shown: FLAG tag at the C-terminus
T2 sequence (looked up): T1 sequence (looked up) with W810R

B1: AMOTL2 (other, human, UniProt Q9Y2J4 1-779, looked up)
chain: MRTLEDSSGTVLHRLIQEQLRYGNLTETRTLLAIQQQALRGGAGTGGTGSPQASLEILAPEDSQVLQQATRQEPQGQEHQGGENHLAENTLYRLCPQPSKGEELPTYEEAKAHSQYYAAQQAGTRPHAGDRDPRGAPGGSRRQDEALRELRHGHVRSLSERLLQLSLERNGARAPSHMSSSHSFPQLARNQQGPPLRGPPAEGPESRGPPPQYPHVVLAHETTTAVTDPRYRARGSPHFQHAEVRILQAQVPPVFLQQQQQYQYLQQSQEHPPPPHPAALGHGPLSSLSPPAVEGPVSAQASSATSGSAHLAQMEAVLRENARLQRDNERLQRELESSAEKAGRIEKLESEIQRLSEAHESLTRASSKREALEKTMRNKMDSEMRRLQDFNRDLRERLESANRRLASKTQEAQAGSQDMVAKLLAQSYEQQQEQEKLEREMALLRGAIEDQRRRAELLEQALGNAQGRAARAEEELRKKQAYVEKVERLQQALGQLQAACEKREQLELRLRTRLEQELKALRAQQRQAGAPGGSSGSGGSPELSALRLSEQLREKEEQILALEADMTKWEQKYLEERAMRQFAMDAAATAAAQRDTTLIRHSPQPSPSSSFNEGLLTGGHRHQEMESRLKVLHAQILEKDAVIKVLQQRSRRDPGKAIQGSLRPAKSVPSVFAAAAAGTQGWQGLSSSERQTADAPARLTTDRAPTEEPVVTAPPAAHAKHGSRDGSTQTEGPPDSTSTCLPPEPDSLLGCSSSQRAASLDSVATSRVQDLSDMVEILI
B2: ARMCX2 (other, human, UniProt Q7L311 1-632, looked up)
chain: MSRVRDAGCVAAGIVIGAGAWYCVYKYTRGRDQTKKRMAKPKNRAVAGTGARARAGLRAGFTIDLGSGFSPPTPVRAEAEDRAQDEASALDTVGAEAVAPAASSAEAQSGAGSQAQEADGAGVGPKAESVVGAAMASAIAPPPGVTEALGAAEAPAMAGAPKVAEAPREAETSRAAVPPGTVVPTEAAAPTEVTEGPGVAAPTKVAEAPGVASPTEAAEAPVPATPTGAAAPTGAAESPGTSGSPRTAVVPGTSAAKKATPGAHTGAIPKATSATGAVPKGGGKGVTRSRNGGKGKGKKSKVEVDELGMGFRPGDGAAAAAAASANGGQAFLAEVPDSEEGESGWTDTESDSDSEPETQRRGRGRRPVAMQKRPFPYEIDEILGVRDLRKVLALLQKSDDPFIQQVALLTLSNNANYSCNQETIRKLGGLPIIANMINKTDPHIKEKALMAMNNLSENYENQGRLQVYMNKVMDDIMASNLNSAVQVVGLKFLTNMTITNDYQHLLVNSIANFFRLLSQGGGKIKVEILKILSNFAENPDMLKKLLSTQVPASFSSLYNSYVESEILINALTLFEIIYDNLRAEVFNYREFNKGSLFYLCTTSGVCVKKIRALANHHDLLVKVKVIKLVNKF
B3: APEH (other, human, UniProt P13798 1-732, looked up)
chain: MERQVLLSEPEEAAALYRGLSRQPALSAACLGPEVTTQYGGQYRTVHTEWTQRDLERMENIRFCRQYLVFHDGDSVVFAGPAGNSVETRGELLSRESPSGTMKAVLRKAGGTGPGEEKQFLEVWEKNRKLKSFNLSALEKHGPVYEDDCFGCLSWSHSETHLLYVAEKKRPKAESFFQTKALDVSASDDEIARLKKPDQAIKGDQFVFYEDWGENMVSKSIPVLCVLDVESGNISVLEGVPENVSPGQAFWAPGDAGVVFVGWWHEPFRLGIRFCTNRRSALYYVDLIGGKCELLSDDSLAVSSPRLSPDQCRIVYLQYPSLIPHHQCSQLCLYDWYTKVTSVVVDVVPRQLGENFSGIYCSLLPLGCWSADSQRVVFDSAQRSRQDLFAVDTQVGTVTSLTAGGSGGSWKLLTIDQDLMVAQFSTPSLPPTLKVGFLPSAGKEQSVLWVSLEEAEPIPDIHWGIRVLQPPPEQENVQYAGLDFEAILLQPGSPPDKTQVPMVVMPHGGPHSSFVTAWMLFPAMLCKMGFAVLLVNYRGSTGFGQDSILSLPGNVGHQDVKDVQFAVEQVLQEEHFDASHVALMGGSHGGFISCHLIGQYPETYRACVARNPVINIASMLGSTDIPDWCVVEAGFPFSSDCLPDLSVWAEMLDKSPIRYIPQVKTPLLLMLGQEDRRVPFKQGMEYYRALKTRNVPVRLLLYPKSTHALSEVEVESDSFMNAVLWLRTHLGS
B4: APPL1 (other, human, UniProt Q9UKG1 1-709, looked up)
chain: MPGIDKLPIEETLEDSPQTRSLLGVFEEDATAISNYMNQLYQAMHRIYDAQNELSAATHLTSKLLKEYEKQRFPLGGDDEVMSSTLQQFSKVIDELSSCHAVLSTQLADAMMFPITQFKERDLKEILTLKEVFQIASNDHDAAINRYSRLSKKRENDKVKYEVTEDVYTSRKKQHQTMMHYFCALNTLQYKKKIALLEPLLGYMQAQISFFKMGSENLNEQLEEFLANIGTSVQNVRREMDSDIETMQQTIEDLEVASDPLYVPDPDPTKFPVNRNLTRKAGYLNARNKTGLVSSTWDRQFYFTQGGNLMSQARGDVAGGLAMDIDNCSVMAVDCEDRRYCFQITSFDGKKSSILQAESKKDHEEWICTINNISKQIYLSENPEETAARVNQSALEAVTPSPSFQQRHESLRPAAGQSRPPTARTSSSGSLGSESTNLAALSLDSLVAPDTPIQFDIISPVCEDQPGQAKAFGQGGRRTNPFGESGGSTKSETEDSILHQLFIVRFLGSMEVKSDDHPDVVYETMRQILAARAIHNIFRMTESHLLVTCDCLKLIDPQTQVTRLTFPLPCVVLYATHQENKRLFGFVLRTSSGRSESNLSSVCYIFESNNEGEKICDSVGLAKQIALHAELDRRASEKQKEIERVKEKQQKELNKQKQIEKDLEEQSRLIAASSRPNQASSEGQFVVLSSSQSEESDLGEGGKKRESEA
B5: ATF6 (other, human, UniProt P18850 1-670, looked up)
chain: MGEPAGVAGTMESPFSPGLFHRLDEDWDSALFAELGYFTDTDELQLEAANETYENNFDNLDFDLDLMPWESDIWDINNQICTVKDIKAEPQPLSPASSSYSVSSPRSVDSYSSTQHVPEELDLSSSSQMSPLSLYGENSNSLSSAEPLKEDKPVTGPRNKTENGLTPKKKIQVNSKPSIQPKPLLLPAAPKTQTNSSVPAKTIIIQTVPTLMPLAKQQPIISLQPAPTKGQTVLLSQPTVVQLQAPGVLPSAQPVLAVAGGVTQLPNHVVNVVPAPSANSPVNGKLSVTKPVLQSTMRNVGSDIAVLRRQQRMIKNRESACQSRKKKKEYMLGLEARLKAALSENEQLKKENGTLKRQLDEVVSENQRLKVPSPKRRVVCVMIVLAFIILNYGPMSMLEQDSRRMNPSVSPANQRRHLLGFSAKEAQDTSDGIIQKNSYRYDHSVSNDKALMVLTEEPLLYIPPPPCQPLINTTESLRLNHELRGWVHRHEVERTKSRRMTNNQQKTRILQGALEQGSNSQLMAVQYTETTSSISRNSGSELQVYYASPRSYQDFFEAIRRRGDTFYVVSFRRDHLLLPATTHNKTTRPKMSIVLPAININENVINGQDYEVMMQIDCQVMDTRILHIKSSSVPPYLRDQQRNQTNTFFGSPPAATEATHVVSTIPESLQ

target: T1, LZTR1 R810W-FLAG; assay: IP/MS, LZTR1 R810W-FLAG, U87
Protocol: (§1) Lysates were immunoprecipitated with FLAG affinity matrix and eluted with FLAG peptide. […] Protein gel slices were excised and in-gel digestion performed as previously described (83), with minor modifications. Gel slices were washed with 1:1 A cetonitrile and 100 mM ammonium bicarbonate for 30 min then dehydrated with 100% acetonitrile for 10 min until shrunk. The excess acetonitrile was then removed and the slices dried in speed-vacuum at room temperature for 10 min. Gel slices were reduced with 5 mM DTT for 30 min at 56° C. in an air thermostat, cooled down to room temperature, and alkylated with 11 mM IAA for 30 min with no light. Gel slices were then washed with 100 mM of ammonium bicarbonate and 100% acetonitrile for 10 min each. Excess acetonitrile was removed and dried in a speed-vacuum for 10 min at room temperature and the gel slices were re-hydrated in a solution of 25 ng/μl trypsin in 50 mM ammonium bicarbonate for 30 min on ice and digested overnight at 37° C. in an air thermostat. Digested peptides were collected and further extracted from gel slices in extraction buffer (1:2 ratio by volume of 5% formic acid:acetonitrile) at high speed, shaking in an air thermostat. The supernatants from both extractions were combined and dried in a speed-vacuum. Peptides were dissolved in 3% acetonitrile/0.1% formic acid. Desalted peptides were injected in an EASY-Spray™ PepMap™ RSLC C18 50 cm×[…] column (Thermo Scientific) connected to an Orbitrap Fusion™ Tribrid™ (Thermo Scientific) as described in “Global ubiquitylation enrichment” section. The following modifications were used for protein identification and quantification: oxidation of methionine (M), acetylation of the protein N-terminus, and deamination for asparagine or glutamine (NQ). Results obtained from MaxQuant were assembled in Scaffold for data visualization.

Binding result, binds:
B1
B2
B3
B4
B5

target: T2, LZTR1-FLAG; assay: IP/MS, LZTR1 wild type-FLAG, U87
Protocol: as §1

Binding result, binds:
B1
B2
B3
B4
B5
